Source: a protein production outcome set (Wang et al. 2014)

Assay: label from the status in PepcDB records

| Sequence | protein production |
| --- | --- |
| MSSFKGIFGFNRVELKDLLISSIAIAIVVVWPRGFPTFNIGFFLHFIAALLTVGIAFIFHELAHRTVARHFGAWSEFRAWYEGLALAIFLKIILGFTFIAPGAVYIHKDYLKTKENGLISVAGPLTNIVLAVLFMILPIPAIYYSGYYVDISSYGYFVNIFLAMFNLLPIYPFDGSKVMRWNFLVWAVLFIPLIVLYFFV | failed |
| MSSGKDFFVHSHALCESENIGKDSRVWAFAHILPGARLGSECNVCDNVFIENDVIIGDRVTLKCGVQVWDGITIEDDVFIGPNATFTNDLFPRSKVYPQTFARTIIRKGASLGANCTILPGITIGINAMVGAGAVVTRSVPPNAIVVGNPAKIIGYVDAKPVNANSETRAEQKAPGVTATSVKNVTLHTMNEVADIRGSLSAGEFERSVPFKTERYFLVYDVPTAETRGEHAHRICHQFLVAVKGSVHVVADDGVNREEFILDKPNQGIHLPPMTWGIQYRYSQDAVLLVFASHYYDAGDYIRNYEEFKSLIANAELEHHHHHH | not failed |
| MSSGNVFLLSIASSAGMNIRLVHRLIAASCAVVLCSTVGIPAGRAGDPFRSSNPQPISASTAAAFTAAFQQGNYPAAEQALQQALRQDSSDPLVFALAGSLAFAQQNRQAFADYARQTKSKAQAIAPQQPLRSQLYIAVGELMMAASTLLPQLTGDGGVPLAAVPQALQSLQTVYGSLRAAAQINPNDPELNLVQGFVDLIVATNLPLANPSGAIAKLEKASPRYLADRGIALGLRNLKRYPEAIQYVDRAIAAAPENPELRYLKAQILVEQSKATGDANLRRAAAAEFQKALAKSSQLPQPLVWQLFFEACNNQKTFDNRGQDCVSLRDQVTQAPGPWGPATLPPL | failed |
| MSSIGYSRRFRLFRRGEVTVLEVMAGQKAYPDTLRYLLVPEGRPQPSGFVGYTVIRTPVKRIAVFSTTHIGFLDMLGRSDGIIGVSRPEFVNTPAVRSRIRSGAIKAIGMPFSPDVEALLNLEPDLVIAPALPAARKTDYQALVQAGIPVLVVAEWLEPSPLGRAEWIKLFGALVGKEKLARERFAAIESSYLKIAALSRNLPNRPTVLTGLPVKDAWYVPTGGSYVAAMLRDAGASYHWRDLPGTGSVPLTIEAVWPVALEAEYWLNTGTVSTLDELLAVDSRFGQMRSVRERRVWNNNRLVNAAGGNAYWESGVVRPDLILKDLVMILHPGLLRAHGIGEGELTFFQEVKLEHHHHHH | not failed |
| MSSKGEGSSSTAEREVKKQVASVIPVTRKLVKTMAAKAIISALTPSGCGRHSDSTGDGKELKPFKKKEGSVIPKERELVKTKAAKAIFSLFRPSCDGKQSSQPSRDGDGDHDGKRVYPTRY | failed |
| MSSMGDQRGTRVYVGNLTDKVKKDDLEGEFTKYGKLNSVWIAFNPPGFAF | failed |
| MSSNECFKCGRSGHWARECPTGGGRGRGMRSRGRGGFTSDRGFQFVSSSLPDICYRCGESGHLAKDCDLQEDACYNCGRGGHIAKDCKEPKREREQCCYNCGKPGHLARDCDHADEQKCYSCGEFGHIQKDCTKVKCYRCGETGHVAINCSKTSEVNCYRCGESGHLARECTIEATA | not failed |
| MSSPATTITFFFFFTLSSFFYITSSLQNNNNNKHTATVNSLNIPSAAAEITLVNPKLPPRSLSLTSSKKFEGSSNLVHLRYHMGPVLSSSPINIYVIWYGQWSRPHKSLIRDFLNSISDAKAPSPSVSEWWRTASLYTDQTGSNVSRSVLIAGEYSDSKYSHGQHLTRLTIQEVIASAARSASFPVDHKNGMYLVLTSHDVTMQDFCRAVCGFHYFTFPSMVGYTMPYAWVGQSGKQCPEVCAYPFALPGYMGHGGPGELRPPNGETGVDGMVSVIGHELAEVVSNPLINAWYAGEDPTAPTEIGDLCEGLYGSGGGGGYIGQVMRDREGKTFNMNGKGGRKFLVQWIWNPNLKACSGPNSVD | failed |
| MSSPVISPETKTGKKILLAAPRGYCAGVDRAVETVERALEEYGAPIYVRKEIVHNRYVVDTLAEKGAIFVNEASEAPEGANMVFSAHGVSPMVHEEAAAKNIKAIDAACPLVTKVHKEVQRFDKQGFHILFIGHEGHEEVEGTMGHSVEKTHLVDGVAGIATLPEFLNDEPNLIWLSQTTLSVDETMEIVRELKVKFPQLQDPPSDDICYATQNRQVAVKAIAERCELMIVVGSRNSSNSVRLVEVAKQNGADNAYLVDYAREIDPAWFEGVETIGISSGASVPEILVQGVIERLAEFGYDDVEEVTSAAEKIVFALPRVLRHKN | not failed |
| MSSPYILVLYYSRHGATAEMARQIARGVEQGGFEARVRTVPAVSTECEAVAPDIPAEGALYATLEDLKNCAGLALGSPTRFGNMASPLKYFLDGTSSLWLTGSLVGKPAAVFTSTASLHGGQETTQLSMLLPLLHHGMLVLGIPYSEPALLETRGGGTPYGASHFAGADGKRSLDEHELTLCRALGKRLAETAGKLGS | not failed |
| MSSRAKRLTHLASLPSMSRALLKKILHFDETLTVIFKQSHVQLSETYGLSTKKARHLYEHLRRVSTDFWSEYYEKKQIVPVTIFDKGYPNLLKEIYDPPFVLFCRGRMNTLYSEKRLAIVGTRKTSTTGLKSLELLIPPLLQDGWVIVSGFAAGVDIHAHQLTVKNGGQTIAVLAHGHDNLYPAAHRPFAEHEMVSQLMISEYPPYVKPRPWQFPERNRIISGLCAGTVVIEAKEKSGSLITADQALEQGRDVFAVPGAITNQKAAGTNQLIQQGAKLIQRADDIIEELCGFQQSCDSDKFF | failed |
| MSSRPSRGAARLAAILDALPDALVLVNANGTVVNANTIALEAFETPGTALVGRGLLDLLPEFDSRLIPGSMRRPDSMDPRGRTKPTRMVARRTDGSEFPVEVTSANLENGQQAYDGYGYTGD | failed |
| MSSSREENVYLAKLAEQAERYEEMVEFMEKVAKTVDTDELTVEERNLLSVAYKNVIGARRASWRIISSIEQKEESRGNDDHVSIIKDYRGKIETELSKICDGILNLLDSHLVPTASLAESKVFYLKMKGDYHRYLAEFKTGAERKEAAESTLVAYKSAQDIALADLAPTHPIRLGLALNFSVFYYEILNSPDRACSLAKQAFDEAISELDTLGEESYKDSTLIMQLLRDNLTLWNSDINDEAGGDEIKEASKHEPEEGKPAETGQ | failed |
| MSSSSTSGLPATLPFEELAEAIKGRRSDYGHISGLQLDRFAPAEAWSSLPYRPVFVGDTETGVLHGGVVTAMLDESCGMAVQLALDGTRAIATLDLRIDYQKPATPGLDIKAHSVCYRTTRSIAFVRSTAYQESEDDPVATATACFMIGANRTNMLADRRMDSRSIPTLEAPEDPDGPFARSPFARCLGIRVNDDGTLTMPFSPKIIGNPILPAIHGGMTGAFLETTAIIGVARELGAAAPPKPIGLTINYLRSGRALDSFANVSIVKQGRRIVAFEARAWQDDADKPIATAFGHFMLRPTPGNDEE | failed |
| MSSSTDTAMAAAEPIWLQHLAEQNIADFIPHRAPMILIDKIISHQQDALETEVLITPQSAYFDEHRQAVPNYVGIEYMAQSIAALAGVEAKLRHDKIRVGFLLGSRKLALHTAQYELNRRYRTQVKRLYQEESGLAVFDCQIYLLPEAQAQQTPLLVAEANVNVFQPQDTQAYIASSQQA | failed |
| MSSSTGALHWQTAQAALARRDLGVAGSALQALLEVEPTHVSARVLLAGTVLANGRMREAVAQLQLAARDVDDDVAMRCRVAQALLRVGAHRQLHALLRHPSVMQCRDGATLALLAHVHQSLGEHVDALAMMQRAQVCGFDGPDFRFFLAVQLQFNGRLDDAAQALEQTLALVPGYGRAALTRARLRRQTVSSNHVDQLRQQLQRSKPDSEDRAGLAFALYKELEDLGDTDAAWDALQHGNAVMHARLRHDADAEASLYARLGTLAEQGVFAAQASDADAVALQGPQPIFVLGLPRSGTTVLERMLGNHSQIVSAGELNDFGHQLRWGADQAGRSLLDAGLLQAFPTLDYTQIGARYLEQTQWRAGPARWYIDKLPANAVAIGAIARALPGALIVHLVREPMAVCFSNYRALFGDSYAYSYDVHTLARHYQAYHGLMAQWRAALPGRVIDVDYTQMVRDPSTVLQQLMARCGLDIEPGQSDITRNAAASATLSSVQVREGVHSRNVEHWRRYAMQLEPLRQALAEAGLIDAGLH | failed |
| MSSSVVAETVPSGSGSWFSHFKATLVLGIPLIGAQLAQLGIHTTDMVIVGQLGAEKLAAMVLAGQFFFVVFIFGSGFSVAVVPMVAQAYGQGDATSARRSLRMGMWVAIAYWLLALPIFFNAERILVYLGQNPNVAALTGHYLAIAKFGLLPALLFYVLRGLVSAIGRAGIILYVTIIMLVMNGLMAYVLVFGHFGLPAMGMNGAAVVAVIVNAFSFIFIVAYVQTREETKKYELFVRFWRPDWHALFEVLRLGLPISITILAEVTLFAAASILMGQIGTVQLAAHGIALQLASIAFMIPLGLSQAATVRVGVARGQGDFKNLIRASIMIYAIACGIALCGGILFAAVPEFLAKWFLDPKLPEAAEVLAYASSLVVIAGIFQLVDGIQAVTAGLLRGLKDARIPAMLALISYWPIGLALAWTMAFPLGFGGRGVWFGFVIGLSTAAVLLTVRFVLLVKREMKTAR | failed |
| MSSTKLIVLKSKELIYTAILLALIVVFVIILINMFKRNDKSDGSQSGPAKAVSAPADPGTGIYNTRYTPGTYSSPLILGENTLSVIVTVDDCQITDVSFQQMGETITTMYPLLESSLEDINTQLHYISSVDDIIPSGDSTYTTKLIIDSIKNALKEAVVN | failed |
| MSSVSDVAFFMEVVKAGTLSGAAQELGVSTAAVSRRLANLEVRLGIRLLNRTTRRAAVTYEGELYLAEGKKILGELEELEQRLASAHSVPKGLLRVNATFGFGRQFIAPAIADFVELHPDVDVQLSLSDRPVNLIEDGFDVCIRFGDLPDARLTSRKIACNRRLLCASPGYLERFGIPASPMDLQRHRCIVIRESDETYGAWHLYSGAAQANVKVRGTVSTNDGEVAVDWALRGLGILLRSEWNVAPYLRSGRLREVLGDWRFPPADIHAVYPMKSNLSAKVRAFVSHLDKHFEPYRPRAEGKSRW | failed |
| MSTALATLAGKLAERVGMDSVDPQELITTLRQTAFKGDASDAQFIALLIVANQYGLNPWTKEIYAFPDKQNGIVPVVGVDGWSRIINENQQFDGMDFEQDNESCTCRIYRKDRNHPICVTEWMDECRREPFKTREGREITGPWQSHPKRMLRHKAMIQCARLAFGFAGIYDKDEAERIVENTAYTAERQPERDITPVNDETMQEINTLLIALDKTWDDDLLPLCSQIFRRDIRASSELTQAEAVKALGFLKQKATEQKVAA | failed |
| MSTAVASAPRSGQVLADLLPASRVRDAALVLGGAALTGLAAQISLPVPGSPVPVTGQTFAALLVGTALGAGRGFLSLAVYALVGMAGVPWFAGGGSGAAAPSFGYILGMLLAATVVGALARRGADRSVLRTAGAMLLGEAIIYAIGVPYLAFATGMSLTAAIAAGLTPFLIGDALKAALAMGVLPTAWKFLNR | failed |
| MSTAVFLGFIVLSLYLALRSRKGTGSQSAHDFFVASRQFGAFLVFFLAAGEIYSVATMVGFAGGIYAKGPTYGIWFLGYILLAYPLGYFLAPKIWEAGQRFNAITLADLFKGHFDNRAVEFVVALSSILFLLPMAQLQFTGLIAAFRGLGWSFQPLHLVLIAAVLAFTYIAISGVRSSAYVAVLKDVLMVVAIVVTGLAVAGEVGVAKVFHVASEHVSNRMNDEQLRFSMSTILFQSLGFYMMPISVQFIYTAKSADTIRRTQVAMPLYMLMYPFLVLASYYALTRSDTLATANEAFFVAATHLLPSWLLGLVAAAAALSGLLVLTGMCLAIGPIVTRNLLPHLPESRQKAGAKGVIVVYLIVSILMTLMAPNLMLTLINTTYYGVTQFLPGMIVILFSLRVRPSAVVLGILTGQLMAVVLYLEKVDLGGINLGLPCLAANVVVMVVLNLLRTPKGLQATA | failed |
| MSTDFAAARLNMVESQIRTADVTDLPLQDALRVVARESVVPASKAYLAYADADIEYAPGRWLLRPREVGKLLQALKPREGETVLAIAAPYAAAVLEKMGLSVTRHDGEDLKTVPAGAYDVIVCEGAVAVAPKSWQDALAHGGRLGVVERTGPVGRAAIYLRAEDGVGRRAAFDASPPLLAGFEAETGFSF | failed |
